Assays:
human MCP-2 = target: T1, human MCP-2 (human, UniProt P80075 24-99); experiment: KinExA, in solution, Fab
T1 construct: also called hMCP-2; huMCP-2
T1 sequence (looked up): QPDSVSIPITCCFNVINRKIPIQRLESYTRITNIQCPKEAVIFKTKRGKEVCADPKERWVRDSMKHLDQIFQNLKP
Procedure: (§1) 1 ml of MCP-1 at a concentration of 10 μg/ml in NaHCO₃ was added to an amount of beads equivalent to 1 ml of the original slurry. The beads were rocked overnight at 4° C. Beads were spun down and washed once with 1M Tris, pH 8.0, then resuspended in 1M Tris pH 8.0 with 1% BSA, 0.02% azide. The beads were rocked at room temperature for one hour then stored at 4° C. in this buffer for the duration of the experiments.
(§2) The KinExA 3000 measures protein-protein interaction in solution, and is ideally suited for measuring affinities of antibodies to antigens. In the typical experiment, antigen (MCP) is immobilized on a bead, antibody is flowed over a column of these beads at a given concentration, and the antibody that binds to the beads is detected using a fluorescent secondary. Antibody at a fixed concentration is then incubated with different concentrations of antigen in solution and the amount of free antibody is measured by flowing the mixture over the bead column quickly enough that no re-equilibration occurs between solution and solid phase. The amount of antibody remaining free is plotted against the concentration of antigen added and the data are fit to a quadratic equation to determine the affinity of the interaction in solution.
(§3) In these experiments, the only difference to the typical experiment described above is that instead of using intact antibody, a Fab fragment of 11K2 was used. Earlier KimExA experiments using the intact murine 11K2 mAb binding to MCP-1 and MCP-2 gave biphasic curves that the software could not interpret. This may be due to these proteins acting as dimers, so to eliminate the dimer/dimer interaction we generated Fab fragments. The binding of the 11K2 Fab fragments to MCP-1 and MCP-2 produced curves that the KinExA software could fit.

human MCP-1 = target: T2, human MCP-1 (human, UniProt P13500 24-99); experiment: KinExA, in solution, Fab
T2 construct: also called hMCP-1; huMCP-1
Procedure: as §1, §2, §3

human eotaxin = target: T3, human eotaxin (human, UniProt P51671 24-97); experiment: ELISA, purified mAb
T3 construct: also called hEotaxin
Procedure: (§4) ELISA specificity assays were performed using purified monoclonal antibodies to confirm the binding specificities of the supernatant MCP-specific monoclonal antibodies described above. Antibodies were purified by Protein A affinity column chromatography, according to standard methods known in the art.
(§5) ELISA was performed as previously described in Example 1. Briefly, MaxiSorp 384 well plates were coated with 15-20 μl antigen in PBS. Recombinant purified human antigens included: MCP-1, MCP-2, MCP-3, MCP-4, IL-8, eotaxin, murine MCP-1 (JE), murine MCP-3, murine MCP-5, and rat MCP-1. All antigens, including MCP-3, were immobilized. Plates were washed and purified monoclonal antibody (10 μg/ml) was added to each well and incubated for 1 hour at room temperature. Plates were washed and wells were incubated with 20 μl/well of a 1:25,000 dilution of goat anti-mouse IgG peroxidase conjugate (Jackson Catalog Number 515-036-003). Plates were incubated for 1 hour at room temperature, washed, and 20 μl/well of substrate (, tetramethylbenzidine, Jackson, Catalog Number 515-036-062) was added. Reaction was allowed to proceed and stopped by addition of 20 μl/well of 2M H₂SO₄. Antibodies 1A1 bound specifically to hMCP-1, hMCP-2, hMCP-3, and mMCP-1. Antibodies 11K2, 4N4, 5A13, 6D21, 615, and 7H1 bound specifically to hMCP-1, hMCP-2, hMCP-3, mMCP-1, mMCP-3, and mMCP-5.

human IL-8 = target: T4, human IL-8 (human, UniProt P10145 28-99, limits assumed); experiment: ELISA, purified mAb
T4 construct: also called hIL8
Procedure: as §4, §5

human MCP-4 = target: T5, human MCP-4 (human, UniProt Q99616 24-98, limits assumed); experiment: ELISA, purified mAb
T5 construct: also called hMCP-4
Procedure: as §4, §5

human fractalkine = target: T6, human fractalkine (human, UniProt P78423 25-100, limits assumed); experiment: ELISA, supernatant
T6 sequence (looked up): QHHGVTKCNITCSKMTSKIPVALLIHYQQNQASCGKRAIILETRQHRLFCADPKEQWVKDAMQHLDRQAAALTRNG
Procedure: (§6) MaxiSorp 384 well plates were coated with 15-20 μl antigen in PBS. Recombinant purified human antigens included: MCP-1, MCP-2, MCP-3, MCP-4, IL-8, eotaxin, fractalkine, Gcp-2, DC-CK (Gcp-2 and DC-CK are also chemokines). Plates were incubated with antigen for 2 hours at 37° C. or overnight at 4° C. Non-specific sites were blocked with 80 μl/well of 1% BSA/PBS for 1 hour at room temperature. Plates were washed and 15 μl of hybridoma supernatant was added to each well and incubated for 1 hour at room temperature. Plates were washed and wells were incubated with 20 μl/well of a 1:25 000 dilution of goat anti-mouse IgG peroxidase conjugate (Jackson Catalog Number 515-036-003). Plates were incubated for 1 hour at room temperature, washed, and 20 μl/well of substrate (TMB, tetramethylbenzidine, Jackson, Catalog Number 515-036-062) was added. Reaction was allowed to proceed and stopped by addition of 20 μl/well of 2M H₂SO₄. Reactive clones were picked for further analysis. Isotyping of hybridoma supernatants was performed by antigen-dependent ELISA. Briefly, wells were coated with 50 μl of human MCP-1 (5 μg/ml) for 1 hour at 37° C. Wells were washed 4 times and blocked with PBS/1% BSA. Isotyping of hybridoma supernatants was then performed using a mouse immunoglobulin screening/isotyping kit (Zymed Laboratories, San Francisco, —CA) as recommended by the manufacturer.

human Gcp-2 = human Gcp-2 (human, UniProt P80162 38-114, limits assumed); experiment: ELISA, supernatant
Procedure: as §6

human DC-CK = target: T7, human DC-CK (human, UniProt P55774 21-89); experiment: ELISA, supernatant
T7 sequence (looked up): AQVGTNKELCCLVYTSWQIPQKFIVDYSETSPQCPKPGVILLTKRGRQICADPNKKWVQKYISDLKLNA
Procedure: as §6

B1: Fab fragment of humanized 11K2 H1L1 (Fab, V domains shown)
VH: QVQLVQSGAEVKKPGSSVKVSCKASGLNIKDTYMHWVRQAPGQGLEWIGRIDPANGNTKFDPKFQGRATITADTSTSTAYMELSSLRSEDTAVYYCARGVFGFFDYWGQGTTVTVSS
VL: DIQMTQSPSSLSASVGDRVTITCKATEDIYNRLAWYQQKPGKAPKLLISGATSLETGVPSRFSGSGSGKDYTLTISSLQPEDFATYYCQQFWSAPYTFGGGTKVEIKR
Kd (human MCP-2): 0.725 nM
Kd (human MCP-1): 0.0364 nM

B2: Fab fragment of humanized 11K2 H2L2 (Fab, V domains shown)
VH: QVQLVQSGAEVKKPGSSVKVSCKASGLTISDTYMHWVRQAPGQGLEWMGRIDPANGNTKFDPKFQGRVTITADTSTSTAYMELSSLRSEDTAVYYCARGVFGFFDYWGQGTTVTVSS
VL: DIQMTQSPSSLSASVGDRVTITCKATEDIYNRLAWYQQKPGKAPKLLISGATSLETGVPSRFSGSGSGTDYTLTISSLQPEDFATYYCQQFWSAPYTFGGGTKVEIKR
Kd (human MCP-2): 3.2 nM
Kd (human MCP-1): 0.0775 nM

B3: Fab fragment of humanized 11K2 H2L1 (Fab, V domains shown)
VH: QVQLVQSGAEVKKPGSSVKVSCKASGLTISDTYMHWVRQAPGQGLEWMGRIDPANGNTKFDPKFQGRVTITADTSTSTAYMELSSLRSEDTAVYYCARGVFGFFDYWGQGTTVTVSS
VL: DIQMTQSPSSLSASVGDRVTITCKATEDIYNRLAWYQQKPGKAPKLLISGATSLETGVPSRFSGSGSGKDYTLTISSLQPEDFATYYCQQFWSAPYTFGGGTKVEIKR
Kd (human MCP-2): 0.94 nM
Kd (human MCP-1): 0.064 nM

B4: Fab fragment of humanized 11K2 H1L2 (Fab, V domains shown)
VH: QVQLVQSGAEVKKPGSSVKVSCKASGLNIKDTYMHWVRQAPGQGLEWIGRIDPANGNTKFDPKFQGRATITADTSTSTAYMELSSLRSEDTAVYYCARGVFGFFDYWGQGTTVTVSS
VL: DIQMTQSPSSLSASVGDRVTITCKATEDIYNRLAWYQQKPGKAPKLLISGATSLETGVPSRFSGSGSGTDYTLTISSLQPEDFATYYCQQFWSAPYTFGGGTKVEIKR
Kd (human MCP-2): 0.712 nM
Kd (human MCP-1): 0.0623 nM

B5: Fab fragment of chimeric 11K2 (Fab, V domains shown)
VH: EVQLQQSGAELVKAGASVKLSCPASGLNIKDTYMHWVKQRPEQGLEWIGRIDPANGNTKFDPKFQGKATITADTSSNTAYLQLSSLTSEDTAVYYCARGVFGFFDYWGQGTTLTVSS
VL: DIQMTQSSSSFSVSLGDRVTITCKATEDIYNRLAWYQQKPGSAPRLLISGATSLETGVPSRFSGSGSGKDYTLSITSLQTEDVATYYCQQFWSAPYTFGGGTKLEIKR
notes: also called Ch11K2
Kd (human MCP-2): 0.226 nM
Kd (human MCP-1): 0.0196 nM

B6: monoclonal antibody 6I5 (antibody, mouse IgG1, V domains shown)
VH: EVQLQQSGAELVKAGASVKLSCPASGLNIKDTYMHWVKQRPEQGLEWIGRIDPANGNTKFDPKFQGKATITADTSSNTAYLQLSSLTSEDTAVYYCARGVFGFFDYWGQGTTLTVSS
VL: DIQMTQSSSSFSVSLGDRVTITCKATEDIYNRLAWYQQKPGSAPRLLISGATSLETGVPSRFSGSGSGKDYTLSITSLQTEDVATYYCQQFWSAPYTFGGGTKLEIK
notes: mouse IgG1; also called 6I5.1; 615
binding result (human eotaxin): no binding (tested: 10 µg/ml)
binding result (human IL-8): no binding (tested: 10 µg/ml)
binding result (human MCP-4): no binding (tested: 10 µg/ml)
binding result (human fractalkine): no binding
binding result (human Gcp-2): no binding
binding result (human DC-CK): no binding

B7: monoclonal antibody 4N4 (antibody, mouse IgG1, V domains shown)
VH: EVQLQQSGAELVKAGASVKLSCPASGLNIKDTYMHWVKQRPEQGLEWIGRIDPANGNTKFDPKFQGKATITADTSSNTAYLQLSSLTSEDTAVYYCARGVFGFFDYWGQGTTLTVSS
VL: DIQMTQSSSSFSVSLGDRVTITCKATEDIYNRLAWYQQKPGSAPRLLISGATSLETGVPSRFSGSGSGKDYTLSITSLQTEDVATYYCQQFWSAPYTFGGGTKLEIK
notes: mouse IgG1; also called 4N4.1
binding result (human eotaxin): no binding (tested: 10 µg/ml)
binding result (human IL-8): no binding (tested: 10 µg/ml)
binding result (human MCP-4): no binding (tested: 10 µg/ml)
binding result (human fractalkine): no binding
binding result (human Gcp-2): no binding
binding result (human DC-CK): no binding

B8: monoclonal antibody 5A13 (antibody, mouse IgG1, V domains shown)
VH: EVQLQQSGAELVKAGASVKLSCPASGLNIKDTYMHWVKQRPEQGLEWIGRIDPANGNTKFDPKFQGKATITADTSSNTAYLQLSSLTSEDTAVYYCARGVFGFFDYWGQGTTLTVSS
VL: DIQMTQSSSSFSVSLGDRVTITCKATEDIYNRLAWYQQKPGSAPRLLISGATSLETGVPSRFSGSGSGKDYTLSITSLQTEDVATYYCQQFWSAPYTFGGGTKLEIK
notes: mouse IgG1; also called 5A13.1
binding result (human eotaxin): no binding (tested: 10 µg/ml)
binding result (human IL-8): no binding (tested: 10 µg/ml)
binding result (human MCP-4): no binding (tested: 10 µg/ml)
binding result (human fractalkine): no binding
binding result (human Gcp-2): no binding
binding result (human DC-CK): no binding

B9: monoclonal antibody 7H1 (antibody, mouse IgG1, V domains shown)
VH: EVQLQQSGAELVKAGASVKLSCPASGLNIKDTYMHWVKQRPEQGLEWIGRIDPANGNTKFDPKFQGKATITADTSSNTAYLQLSSLTSEDTAVYYCARGVFGFFDYWGQGTTLTVSS
VL: DIQMTQSSSSFSVSLGDRVTITCKATEDIYNRLAWYQQKPGSAPRLLISGATSLETGVPSRFSGSGSGKDYTLSITSLQTEDVATYYCQQFWSAPYTFGGGTKLEIK
notes: mouse IgG1; also called 7H1.1
binding result (human eotaxin): no binding (tested: 10 µg/ml)
binding result (human IL-8): no binding (tested: 10 µg/ml)
binding result (human MCP-4): no binding (tested: 10 µg/ml)
binding result (human fractalkine): no binding
binding result (human Gcp-2): no binding
binding result (human DC-CK): no binding

B10: monoclonal antibody 6D21 (antibody, mouse IgG1, V domains shown)
VH: EVQLQQSGAELVKAGASVKLSCPASGLNIKDTYMHWVKQRPEQGLEWIGRIDPANGNTKFDPKFQGKATITADTSSNTAYLQLSSLTSEDTAVYYCARGVFGFFDYWGQGTTLTVSS
VL: DIQMTQSSSSFSVSLGDRVTITCKATEDIYNRLAWYQQKPGSAPRLLISGATSLETGVPSRFSGSGSGKDYTLSITSLQTEDVATYYCQQFWSAPYTFGGGTKLEIK
notes: mouse IgG1; also called 6D21.1
binding result (human eotaxin): no binding (tested: 10 µg/ml)
binding result (human IL-8): no binding (tested: 10 µg/ml)
binding result (human MCP-4): no binding (tested: 10 µg/ml)
binding result (human fractalkine): no binding
binding result (human Gcp-2): no binding
binding result (human DC-CK): no binding
